# Publication PMC4587294 (Nanomedicine, 2015)
# Values joined by “and” are separate entries in the source; they are usually repeats but may differ in a detail not shown here. Equal entries are not always repeated.
# B1: T2i88-8-pf self-assembling protein nanoparticle (SAPN) chain (designed binder)
# chain: MGHHHHHHASWKWDGGLVPRGSWQTWNAKWDQWSNDWNAWRSDWQAWKDDWAYWTLTWKYGELYSKLAELERRLEELAKFVAAWTLKAAAVDLELAALRRRLEELARGGSGANANPNANPNANPNANP
# Assays:
# AUC = molecular target: the molecule itself; assay: AUC
# STEM mass measurement = molecular target: the molecule itself; assay: STEM mass measurement
protein,measurement,setting,value
B1,stoichiometry N,AUC,~180 chains per nanoparticle
same,stoichiometry N,STEM mass measurement,195 peptide chains per nanoparticle and ~180 peptide chains per particle
